Measurements: patent US6307020A, “Intracellular antifreeze polypeptides and nucleic acids” (HSC Research and Development Ltd. Partnership, priority 1998, dated 2001)

Columns and labels:
[1] = Circular dichroism and thermal denaturation of liver and skin AFPs; type: physicochemical; details: for Tm (temperature at which fraction helix is 0.5): thermal denaturation 0-60° C., CD
Procedure: CD spectra were measured using a Jasco J-600 spectropolarimeter. A water-jacketed (0.1 cm) quartz cell was used. Concentrations of peptides were calculated from UV-absorbance at 230 nm (OD230 =6.1 mM/L peptide-bonds). The concentrations of peptides for CD measurement were between 0.1-0.2 mg/ml in 0.1M NH4 HCO3, pH 8.5. Thermal denaturation of the peptides were measured by varying temperatures from 0-60° C. with a 5° C. step gradient. After CD measurement at 60° C., the samples were cooled to 0° C. and the extent of refolding was determined. The mean residue ellipticity at a given wavelength [q]1 was expressed in degree cm^2 dmol^-1. Fraction helix was calculated as described by Greenfield and Fasman (1969) Biochemistry 8, 4108-4116, employing 222 nm instead of 208 nm: [formula]
The ellipticity [q]222^coil of each peptide in 6.0 M guanidine hydrochloride at 25° C. was assumed to represent 0% helix formation, and the ellipticity for [q]222^helix 100% helix formation was calculated from J. T. Yang et al. (1986) Methods in Enzymology 130, 208-269: [q]^n= [q]^.infin. (1-k/n); where n is the chain length and k is a wavelength-dependent factor (at 222 nm k=2.5 and [q].infin.=-37,400 degree cm^2 dmol^-1).

[2] = Antifreeze activity measured as thermal hysteresis with a Clifton Nanoliter Osmometer; type: physicochemical
Procedure: The preferred method of measuring the activity of a skin type AFP is to measure the thermal hysteresis (the difference between the melting and freezing temperatures) of an aqueous solution containing the AFP. This can be done by performing a serial dilution of the AFP-containing aqueous solution, followed by cooling the solution gradually and monitoring the freezing point of the solution. Typically, this is performed using commercially available equipment designed specifically for this purpose, such as nanoliter osmoineter. See, Kao et al. (1986) Can. J. Zool. 64:578-582. A preferred osmometer is the Clifton Nanoliter Osmoineter (Clifton Technical Physics, Hartford, N.Y.). Instructions for using the equipment to perform thermal hysteresis are available from the manufacturer. […]
The activity of a skin-type AFP can be measured using a nanoliter osmometer. Antifreeze activity was measured as thermal hysteresis (the difference between the melting and freezing temperatures), essentially following the procedure of Chakrabartty et al. (1989) J. Biol. Chem. 264: 11313-11316. Proteins were dissolved in 0.1 M NH4 HCO3 and their concentrations were determined by duplicate amino acid analyses. […]
Antifreeze activity was measured as thermal hysteresis (difference between the melting and freezing temperatures) essentially following the procedure of Chakrabartty et al. (1989) J. Biol. Chem. 264, 11307-11312. […]

## sAFP2: skin-type AFP from winter flounder, MDAPAKAAAA TAAAAKAAAEA TAAAAAKAAAA TKAGAAR, SEQ ID NO: 18; identical to protein encoded by F2 (MDAPAKAAAATAAAAKAAAEATAAAAAKAAAATKAGAAR)
[1]; 0° C., pH 8.5, 0.1M NH4HCO3, calculated from ellipticity at 222 nm
  Fraction Helix: 0.61
[1]; at 0° C.
  helical content by circular dichroism: 61%
[1]; measured at 0° C., pH 8.5, 0.1M NH4HCO3
  [Θ]222 mean residue ellipticity: -21,677 deg cm^2 dmol^-1
[1]
  Tm (temperature at which fraction helix is 0.5): 12 °C
[1]; listed as SAFP2
  Tm (temperature at which fraction helix is 0.5): 12.0 °C
[2]; dilutions 0.1 to 7.0 mM in 0.1 M NH4HCO3, FIG. 3
  antifreeze activity (thermal hysteresis) compared with serum AFP HPLC-6: less than half of that observed for HPLC-6
[2]; nanoliter osmometer, 0.1 M NH4HCO3
  antifreeze activity of GST-sAFP2 fusion protein compared with sAFP2: indistinguishable
